We go through 3 molecules from publication PMC11648230, “Structure–function analysis of tRNA t6A-catalysis, assembly, and thermostability of Aquifex aeolicus TsaD2B2 tetramer in complex with TsaE”.

One data set addresses TmTsaD;TmTsaB (Thermotoga maritima;Thermotoga maritima, UniProt Q9WXZ2;Q9WZX7 1-327;1-206, |). Kind of data set: EMSA; TsaD2B2 tetramer; EMSA: 1 uM 6-FAM-tRNA, 0-100 uM protein, 2% agarose, 20 mM Tris-HCl/50 mM glycine pH 8.5 running buffer (loading buffer for native gels 20 mM Tris-HCl pH 7.5, 300 mM NaCl, 25% glycerol); MST: 10 nM tRNA, 20 mM PBS pH 7.5, 300 mM NaCl, 0.05% Tween 20, 25 C. The conditions noted are these: protein: recombinant;recombinant; tags: ;; chain copies: 2;2; label: 5' 6-FAM; tRNA cloverleaf. On the technique in general: A gel shift assay detects complexes by their altered migration in electrophoresis.

Data set [1] concerns the target TmTsaD;TmTsaB dimer-interface mutant (Thermotoga maritima;Thermotoga maritima, UniProt Q9WXZ2;Q9WZX7 1-327;1-206, |E20A;D21A;L22A;E24A;S26A;Y27A;T28A;E30A;K31A). Kind of data set: EMSA; TsaDB dimer; EMSA: 1 uM 6-FAM-tRNA, 0-100 uM protein, 2% agarose, 20 mM Tris-HCl/50 mM glycine pH 8.5 running buffer (loading buffer for native gels 20 mM Tris-HCl pH 7.5, 300 mM NaCl, 25% glycerol); MST: 10 nM tRNA, 20 mM PBS pH 7.5, 300 mM NaCl, 0.05% Tween 20, 25 C. The conditions noted are these: protein: recombinant;recombinant; tags: ;; copies: 1;1; label: 5' 6-FAM; tRNA cloverleaf.

A further data set has as its target AaTsaD;AaTsaB (Aquifex aeolicus;Aquifex aeolicus, UniProt O66986;O66494 1-335;1-200, |). Nature of the data set: MST; not saturated at 100 uM; stronger than AaTsaDB; EMSA: 1 uM 6-FAM-tRNA, 0-100 uM protein, 2% agarose, 20 mM Tris-HCl/50 mM glycine pH 8.5 running buffer (loading buffer for native gels 20 mM Tris-HCl pH 7.5, 300 mM NaCl, 25% glycerol); MST: 10 nM tRNA, 20 mM PBS pH 7.5, 300 mM NaCl, 0.05% Tween 20, 25 C. The conditions noted are these: protein: recombinant;recombinant; tags: ;C-terminal 6His; chain copies: 2;2; label: 5' 6-FAM; tRNA cloverleaf.

The next data set has as its target AaTsaD;AaTsaBmut (Aquifex aeolicus;Aquifex aeolicus, UniProt O66986;O66494 1-335;1-200+=WEKKKRG, |internal_change). Nature of the data set: EMSA; TsaD2Bmut2 tetramer; EMSA: 1 uM 6-FAM-tRNA, 0-100 uM protein, 2% agarose, 20 mM Tris-HCl/50 mM glycine pH 8.5 running buffer (loading buffer for native gels 20 mM Tris-HCl pH 7.5, 300 mM NaCl, 25% glycerol); MST: 10 nM tRNA, 20 mM PBS pH 7.5, 300 mM NaCl, 0.05% Tween 20, 25 C. Particulars: protein: recombinant;recombinant; tags: ;C-terminal 6His; chain copies: 2;2; label: 5' 6-FAM; tRNA cloverleaf.

Another data set concerns the target AaTsaD del34-38;AaTsaB (Aquifex aeolicus;Aquifex aeolicus, UniProt O66986;O66494 1-335;1-200, del34-38|). Kind of data set: EMSA; tighter than TsaD2B2; EMSA: 1 uM 6-FAM-tRNA, 0-100 uM protein, 2% agarose, 20 mM Tris-HCl/50 mM glycine pH 8.5 running buffer (loading buffer for native gels 20 mM Tris-HCl pH 7.5, 300 mM NaCl, 25% glycerol); MST: 10 nM tRNA, 20 mM PBS pH 7.5, 300 mM NaCl, 0.05% Tween 20, 25 C. Particulars: protein: recombinant;recombinant; tags: ;C-terminal 6His; chain copies: 2;2; label: 5' 6-FAM; tRNA cloverleaf.

A further data set deals with EcTsaD;EcTsaB (Escherichia coli;Escherichia coli, UniProt P05852;P76256 1-337;1-231, |). Nature of the data set: EMSA; TsaDB dimer; EMSA: 1 uM 6-FAM-tRNA, 0-100 uM protein, 2% agarose, 20 mM Tris-HCl/50 mM glycine pH 8.5 running buffer (loading buffer for native gels 20 mM Tris-HCl pH 7.5, 300 mM NaCl, 25% glycerol); MST: 10 nM tRNA, 20 mM PBS pH 7.5, 300 mM NaCl, 0.05% Tween 20, 25 C. The conditions noted are these: protein: recombinant;recombinant; tags: ;; copies: 1;1; tRNA cloverleaf.
EcTsaD;EcTsaB, sequence (P05852 whole entry, chain 1 of 2): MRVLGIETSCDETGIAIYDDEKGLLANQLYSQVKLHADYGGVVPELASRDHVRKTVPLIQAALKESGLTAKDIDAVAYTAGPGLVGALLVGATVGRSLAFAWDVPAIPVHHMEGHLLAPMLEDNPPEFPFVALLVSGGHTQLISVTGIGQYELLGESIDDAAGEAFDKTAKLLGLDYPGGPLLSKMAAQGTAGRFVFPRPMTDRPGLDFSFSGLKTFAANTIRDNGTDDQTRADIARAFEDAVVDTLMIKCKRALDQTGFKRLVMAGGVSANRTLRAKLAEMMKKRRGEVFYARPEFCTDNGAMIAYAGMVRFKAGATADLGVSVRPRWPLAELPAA
EcTsaD;EcTsaB, sequence (P76256 whole entry, chain 2 of 2): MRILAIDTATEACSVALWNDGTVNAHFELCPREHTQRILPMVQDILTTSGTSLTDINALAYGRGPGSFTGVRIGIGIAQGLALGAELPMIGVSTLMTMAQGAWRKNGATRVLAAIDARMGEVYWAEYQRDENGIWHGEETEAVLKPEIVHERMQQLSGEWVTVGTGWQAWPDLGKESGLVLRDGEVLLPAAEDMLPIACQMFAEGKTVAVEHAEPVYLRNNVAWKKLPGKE

TmTsaD;TmTsaB dimer-interface mutant, sequence (Q9WXZ2 whole entry, stated change not applied, chain 1 of 2): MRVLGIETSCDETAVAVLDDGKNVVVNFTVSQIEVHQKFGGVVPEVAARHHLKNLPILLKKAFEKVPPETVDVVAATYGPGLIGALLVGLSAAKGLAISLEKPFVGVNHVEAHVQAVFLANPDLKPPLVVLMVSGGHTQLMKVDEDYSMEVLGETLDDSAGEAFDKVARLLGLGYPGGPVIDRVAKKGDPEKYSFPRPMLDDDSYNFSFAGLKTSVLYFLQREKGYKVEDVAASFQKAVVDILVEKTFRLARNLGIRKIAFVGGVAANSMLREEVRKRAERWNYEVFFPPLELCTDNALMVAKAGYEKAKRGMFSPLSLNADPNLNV
TmTsaD;TmTsaB dimer-interface mutant, sequence (Q9WZX7 whole entry E20A/D21A/L22A/E24A/S26A/Y27A/T28A/E30A/K31A, chain 2 of 2): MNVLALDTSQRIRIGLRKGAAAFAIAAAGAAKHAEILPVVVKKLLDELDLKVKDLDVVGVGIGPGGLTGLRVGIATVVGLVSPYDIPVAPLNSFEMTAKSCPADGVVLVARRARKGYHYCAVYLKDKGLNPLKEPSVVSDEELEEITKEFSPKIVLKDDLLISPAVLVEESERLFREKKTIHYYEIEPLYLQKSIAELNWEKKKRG
TmTsaD;TmTsaB, sequence (Q9WXZ2 whole entry, chain 1 of 2): as the sequence (Q9WXZ2 whole entry, stated change not applied, chain 1 of 2) above
TmTsaD;TmTsaB, sequence (Q9WZX7 whole entry, chain 2 of 2): as the sequence (Q9WZX7 whole entry E20A/D21A/L22A/E24A/S26A/Y27A/T28A/E30A/K31A, chain 2 of 2) above, with A20E, A21D, A22L, A24E, A26S, A27Y, A28T, A30E, A31K counted along it
AaTsaD del34-38;AaTsaB, sequence (O66986 other isoform, or with tags, fused parts or gaps del34-38|, chain 1 of 2): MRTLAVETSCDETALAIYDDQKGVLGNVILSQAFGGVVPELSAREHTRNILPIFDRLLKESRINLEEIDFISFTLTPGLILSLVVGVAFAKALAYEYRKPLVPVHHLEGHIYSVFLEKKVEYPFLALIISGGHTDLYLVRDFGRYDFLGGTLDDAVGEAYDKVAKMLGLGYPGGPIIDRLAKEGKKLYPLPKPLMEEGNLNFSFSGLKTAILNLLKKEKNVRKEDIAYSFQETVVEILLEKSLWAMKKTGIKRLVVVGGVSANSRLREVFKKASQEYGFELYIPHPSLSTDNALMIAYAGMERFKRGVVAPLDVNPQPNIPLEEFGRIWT
AaTsaD del34-38;AaTsaB, sequence (chain, as listed by the source del34-38|, chain 2 of 2): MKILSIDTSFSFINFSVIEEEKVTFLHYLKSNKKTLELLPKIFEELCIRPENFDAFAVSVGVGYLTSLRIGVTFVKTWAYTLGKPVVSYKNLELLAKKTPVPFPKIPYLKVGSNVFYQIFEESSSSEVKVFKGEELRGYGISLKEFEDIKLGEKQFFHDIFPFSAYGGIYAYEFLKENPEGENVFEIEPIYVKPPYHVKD
AaTsaD;AaTsaB, sequence (O66986 whole entry, chain 1 of 2): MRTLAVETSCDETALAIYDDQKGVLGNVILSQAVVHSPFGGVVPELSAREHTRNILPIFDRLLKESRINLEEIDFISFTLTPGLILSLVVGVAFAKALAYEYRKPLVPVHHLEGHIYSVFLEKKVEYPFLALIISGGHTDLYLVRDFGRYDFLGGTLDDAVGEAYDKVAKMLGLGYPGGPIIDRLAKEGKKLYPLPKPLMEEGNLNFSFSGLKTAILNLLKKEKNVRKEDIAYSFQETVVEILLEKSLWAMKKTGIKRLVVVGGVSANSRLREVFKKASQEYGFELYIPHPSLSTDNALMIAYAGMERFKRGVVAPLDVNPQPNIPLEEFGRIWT
AaTsaD;AaTsaB, sequence (chain, as listed by the source |, chain 2 of 2): as the sequence (chain, as listed by the source del34-38|, chain 2 of 2) above
AaTsaD;AaTsaBmut, sequence (O66986 whole entry, change not shown, chain 1 of 2): as the sequence (O66986 whole entry, chain 1 of 2) above
AaTsaD;AaTsaBmut, sequence (chain, as listed by the source |, chain 2 of 2): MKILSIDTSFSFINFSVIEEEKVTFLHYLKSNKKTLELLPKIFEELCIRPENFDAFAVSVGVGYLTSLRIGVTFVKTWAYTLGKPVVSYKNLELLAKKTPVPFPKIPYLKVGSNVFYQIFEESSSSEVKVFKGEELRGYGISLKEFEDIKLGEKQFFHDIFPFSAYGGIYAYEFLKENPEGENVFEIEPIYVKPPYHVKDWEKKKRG

B1: T. maritima tRNALysUUU (structured_RNA)
RNA: GACCCGGUAGCUCAGCAGGCAGAGCACCUGACUUUUAAUCAGGGGGUCGUGGGUUCGAAUCCCACCCGGGUCACCA
B1: the Kd (commonly the free concentration of one partner at which half of the binding sites on the other are occupied at equilibrium, for simple one-to-one binding) in the data set with TmTsaD;TmTsaB was determined as 1200 nM; in data set [1] it was 1720 nM.

B2: A. aeolicus tRNALysUUU (structured_RNA)
RNA: GAGCCGGUAGCUCAGUUGGUAGAGCAACGGCCUUUUAAGCCGUGGGUCGCGGGUUCGAGUCCCGCCCGGCUCACCA
As to B2, the binding result in the data set with AaTsaD;AaTsaB and with AaTsaD del34-38;AaTsaB was “binds” throughout. Also, the Kd with AaTsaD;AaTsaBmut was roughly 1160 nM.

B3: E. coli tRNALysUUU (structured_RNA)
RNA: GGGUCGUUAGCUCAGUUGGUAGAGCAGUUGACUUUUAAUCAAUUGGUCGCAGGUUCGAAUCCUGCACGACCCACCA
As to B3, the binding result with EcTsaD;EcTsaB was “no binding”.
